Patent US20250144178A1 (KANAPH THERAPEUTICS, published 2025)
Positions count from the first letter of the chain named.

B1: T1.08 (anti-hu FAP/hu IL-12, hu IgG1 DANG (2 + 1, LC scFv)) (bispecific antibody)
heavy: QVQLVQSGAEVKKPGASVKVSCKTSRYTFTEYTIHWVRQAPGQRLEWIGGINPNNGIPNYNQKFKGRVTITVDTSASTAYMELSSLRSEDTAVYYCARRRIAYGYDEGHAMDYWGQGTLVTVSSASTKGPSVFPLAPSSKSTSGGTAALGCLVKDYFPEPVTVSWNSGALTSGVHTFPAVLQSSGLYSLSSVVTVPSSSLGTQTYICNVNHKPSNTKVDKKVEPKSCDKTHTCPPCPAPELLGGPSVFLFPPKPKDTLMISRTPEVTCVVVAVSHEDPEVKFNWYVDGVEVHNAKTKPREEQYGSTYRVVSVLTVLHQDWLNGKEYKCKVSNKALPAPIEKTISKAKGQPREPQVYTLPPSRDELTKNQVSLWCLVKGFYPSDIAVEWESNGQPENNYKTTPPVLDSDGSFFLYSKLTVDKSRWQQGNVFSCSVMHEALHNHYTQKSLSLSPGK
light: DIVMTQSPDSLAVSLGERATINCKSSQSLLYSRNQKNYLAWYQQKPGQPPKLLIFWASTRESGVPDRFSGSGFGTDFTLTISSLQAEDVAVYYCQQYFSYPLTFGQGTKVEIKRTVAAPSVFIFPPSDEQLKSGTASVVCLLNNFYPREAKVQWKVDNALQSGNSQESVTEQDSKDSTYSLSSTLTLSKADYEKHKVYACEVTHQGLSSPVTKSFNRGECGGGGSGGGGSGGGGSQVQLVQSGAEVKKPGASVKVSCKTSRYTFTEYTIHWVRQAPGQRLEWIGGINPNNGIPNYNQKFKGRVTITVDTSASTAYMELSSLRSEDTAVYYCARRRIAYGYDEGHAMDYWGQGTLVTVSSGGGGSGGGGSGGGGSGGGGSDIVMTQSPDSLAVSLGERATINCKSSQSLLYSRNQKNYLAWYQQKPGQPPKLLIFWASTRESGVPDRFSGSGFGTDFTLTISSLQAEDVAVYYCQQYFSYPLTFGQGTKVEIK
chain: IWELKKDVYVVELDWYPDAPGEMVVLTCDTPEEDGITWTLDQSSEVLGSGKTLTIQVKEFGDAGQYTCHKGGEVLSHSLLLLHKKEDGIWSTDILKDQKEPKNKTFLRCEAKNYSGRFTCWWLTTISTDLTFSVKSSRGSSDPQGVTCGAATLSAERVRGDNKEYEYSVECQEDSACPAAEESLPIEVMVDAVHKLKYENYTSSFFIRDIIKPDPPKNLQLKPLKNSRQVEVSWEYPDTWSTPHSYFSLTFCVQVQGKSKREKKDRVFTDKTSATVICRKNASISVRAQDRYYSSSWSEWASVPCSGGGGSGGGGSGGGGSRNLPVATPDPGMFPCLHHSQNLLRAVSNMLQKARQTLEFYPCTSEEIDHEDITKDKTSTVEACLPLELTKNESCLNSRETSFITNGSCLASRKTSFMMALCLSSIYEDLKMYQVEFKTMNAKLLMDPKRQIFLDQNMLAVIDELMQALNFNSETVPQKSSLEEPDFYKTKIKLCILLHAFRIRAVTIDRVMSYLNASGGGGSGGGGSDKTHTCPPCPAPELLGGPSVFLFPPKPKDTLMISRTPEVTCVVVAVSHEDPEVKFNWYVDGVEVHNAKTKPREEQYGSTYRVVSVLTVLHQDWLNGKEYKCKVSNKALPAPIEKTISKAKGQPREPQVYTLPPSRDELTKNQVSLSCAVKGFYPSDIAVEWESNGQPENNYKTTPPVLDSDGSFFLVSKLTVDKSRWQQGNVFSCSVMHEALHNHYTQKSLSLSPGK
notes: Anti-FAP scFv at the C-terminus of the light chain; knob-in-hole with the IL-12 arm
B2: T1.10 (anti-hu FAP/anti-hu FAP-hu IL-12, hu IgG1 DANG (2 + 1)) (antibody)
heavy 1: B1 heavy
heavy 2: QVQLVQSGAEVKKPGASVKVSCKTSRYTFTEYTIHWVRQAPGQRLEWIGGINPNNGIPNYNQKFKGRVTITVDTSASTAYMELSSLRSEDTAVYYCARRRIAYGYDEGHAMDYWGQGTLVTVSSASTKGPSVFPLAPSSKSTSGGTAALGCLVKDYFPEPVTVSWNSGALTSGVHTFPAVLQSSGLYSLSSVVTVPSSSLGTQTYICNVNHKPSNTKVDKKVEPKSCDKTHTCPPCPAPELLGGPSVFLFPPKPKDTLMISRTPEVTCVVVAVSHEDPEVKFNWYVDGVEVHNAKTKPREEQYGSTYRVVSVLTVLHQDWLNGKEYKCKVSNKALPAPIEKTISKAKGQPREPQVYTLPPSRDELTKNQVSLSCAVKGFYPSDIAVEWESNGQPENNYKTTPPVLDSDGSFFLVSKLTVDKSRWQQGNVFSCSVMHEALHNHYTQKSLSLSPGGGGGSGGGGSGGGGSIWELKKDVYVVELDWYPDAPGEMVVLTCDTPEEDGITWTLDQSSEVLGSGKTLTIQVKEFGDAGQYTCHKGGEVLSHSLLLLHKKEDGIWSTDILKDQKEPKNKTFLRCEAKNYSGRFTCWWLTTISTDLTFSVKSSRGSSDPQGVTCGAATLSAERVRGDNKEYEYSVECQEDSACPAAEESLPIEVMVDAVHKLKYENYTSSFFIRDIIKPDPPKNLQLKPLKNSRQVEVSWEYPDTWSTPHSYFSLTFCVQVQGKSKREKKDRVFTDKTSATVICRKNASISVRAQDRYYSSSWSEWASVPCSGGGGSGGGGSGGGGSRNLPVATPDPGMFPCLHHSQNLLRAVSNMLQKARQTLEFYPCTSEEIDHEDITKDKTSTVEACLPLELTKNESCLNSRETSFITNGSCLASRKTSFMMALCLSSIYEDLKMYQVEFKTMNAKLLMDPKRQIFLDQNMLAVIDELMQALNFNSETVPQKSSLEEPDFYKTKIKLCILLHAFRIRAVTIDRVMSYLNAS
light: not shown
notes: single-chain IL-12 at the C-terminus of the hole heavy chain
B3: T1.09 (anti-hu FAP/hu IL-12 mut2, hu IgG1 DANG (2 + 1, LC scFv)) (bispecific antibody)
heavy: B1 heavy
light: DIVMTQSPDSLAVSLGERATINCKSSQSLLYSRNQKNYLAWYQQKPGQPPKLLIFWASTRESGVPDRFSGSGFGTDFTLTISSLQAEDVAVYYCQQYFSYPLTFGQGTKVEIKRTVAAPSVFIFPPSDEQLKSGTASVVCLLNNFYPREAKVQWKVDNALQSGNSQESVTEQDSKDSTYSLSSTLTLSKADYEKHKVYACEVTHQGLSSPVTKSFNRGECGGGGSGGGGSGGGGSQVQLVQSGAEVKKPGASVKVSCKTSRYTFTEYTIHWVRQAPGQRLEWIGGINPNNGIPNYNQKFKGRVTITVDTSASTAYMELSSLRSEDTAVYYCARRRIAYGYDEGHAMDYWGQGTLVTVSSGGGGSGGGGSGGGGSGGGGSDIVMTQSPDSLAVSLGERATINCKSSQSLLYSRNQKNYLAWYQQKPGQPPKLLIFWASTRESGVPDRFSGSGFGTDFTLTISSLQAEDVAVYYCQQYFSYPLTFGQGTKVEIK
chain: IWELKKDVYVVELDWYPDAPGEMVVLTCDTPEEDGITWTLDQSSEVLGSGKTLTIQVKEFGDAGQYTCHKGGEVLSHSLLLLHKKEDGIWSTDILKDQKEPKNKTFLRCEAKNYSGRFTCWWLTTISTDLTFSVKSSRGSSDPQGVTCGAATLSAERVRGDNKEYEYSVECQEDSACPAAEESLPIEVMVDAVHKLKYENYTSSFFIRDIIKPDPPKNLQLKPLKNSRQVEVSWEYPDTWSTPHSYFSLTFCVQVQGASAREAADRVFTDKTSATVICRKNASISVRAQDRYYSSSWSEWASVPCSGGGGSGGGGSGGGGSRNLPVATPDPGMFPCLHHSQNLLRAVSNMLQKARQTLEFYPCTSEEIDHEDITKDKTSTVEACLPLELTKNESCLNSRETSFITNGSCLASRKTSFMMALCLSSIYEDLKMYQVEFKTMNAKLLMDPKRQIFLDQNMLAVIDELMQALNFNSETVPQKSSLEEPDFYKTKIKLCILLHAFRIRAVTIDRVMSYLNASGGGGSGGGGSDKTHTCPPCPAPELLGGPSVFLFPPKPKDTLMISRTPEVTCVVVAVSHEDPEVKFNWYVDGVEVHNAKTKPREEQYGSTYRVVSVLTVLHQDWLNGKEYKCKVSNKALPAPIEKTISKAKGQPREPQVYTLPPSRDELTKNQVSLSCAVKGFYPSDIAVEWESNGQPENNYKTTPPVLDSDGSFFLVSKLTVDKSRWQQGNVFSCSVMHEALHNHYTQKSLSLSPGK
notes: Anti-FAP scFv at the C-terminus of the light chain; knob-in-hole with the IL-12 mut2 arm
B4: T1.11 (anti-hu FAP/anti-hu FAP-hu IL-12 mut2, hu IgG1 DANG (2 + 1)) (antibody)
heavy 1: B1 heavy
heavy 2: B2 heavy 2 with K726A, K728A, K731A, K732A
light: not shown
notes: single-chain IL-12 mut2 at the C-terminus of the hole heavy chain
B5: T1.06 (anti-hu FAP/hu IL-12, hu IgG1 DANG (2 + 1, HC scFv)) (bispecific antibody)
heavy: QVQLVQSGAEVKKPGASVKVSCKTSRYTFTEYTIHWVRQAPGQRLEWIGGINPNNGIPNYNQKFKGRVTITVDTSASTAYMELSSLRSEDTAVYYCARRRIAYGYDEGHAMDYWGQGTLVTVSSASTKGPSVFPLAPSSKSTSGGTAALGCLVKDYFPEPVTVSWNSGALTSGVHTFPAVLQSSGLYSLSSVVTVPSSSLGTQTYICNVNHKPSNTKVDKKVEPKSCDKTHTCPPCPAPELLGGPSVFLFPPKPKDTLMISRTPEVTCVVVAVSHEDPEVKFNWYVDGVEVHNAKTKPREEQYGSTYRVVSVLTVLHQDWLNGKEYKCKVSNKALPAPIEKTISKAKGQPREPQVYTLPPSRDELTKNQVSLWCLVKGFYPSDIAVEWESNGQPENNYKTTPPVLDSDGSFFLYSKLTVDKSRWQQGNVFSCSVMHEALHNHYTQKSLSLSPGKGGGGSGGGGSGGGGSQVQLVQSGAEVKKPGASVKVSCKTSRYTFTEYTIHWVRQAPGQRLEWIGGINPNNGIPNYNQKFKGRVTITVDTSASTAYMELSSLRSEDTAVYYCARRRIAYGYDEGHAMDYWGQGTLVTVSSGGGGSGGGGSGGGGSGGGGSDIVMTQSPDSLAVSLGERATINCKSSQSLLYSRNQKNYLAWYQQKPGQPPKLLIFWASTRESGVPDRFSGSGFGTDFTLTISSLQAEDVAVYYCQQYFSYPLTFGQGTKVEIK
light: not shown
chain: not shown
notes: Anti-FAP scFv at the C-terminus of the heavy chain; knob-in-hole with the IL-12 arm
B6: T1.07 (anti-hu FAP/hu IL-12 mut2, hu IgG1 DANG (2 + 1, HC scFv)) (bispecific antibody)
heavy: B5 heavy
light: not shown
chain: not shown
notes: Anti-FAP scFv at the C-terminus of the heavy chain; knob-in-hole with the IL-12 mut2 arm
B7: T1.04 (anti-hu FAP/hu IL-12, hu IgG1 DANG (2 + 1)) (bispecific antibody)
heavy: QVQLVQSGAEVKKPGASVKVSCKTSRYTFTEYTIHWVRQAPGQRLEWIGGINPNNGIPNYNQKFKGRVTITVDTSASTAYMELSSLRSEDTAVYYCARRRIAYGYDEGHAMDYWGQGTLVTVSSGGGGSGGGGSGGGGSQVQLVQSGAEVKKPGASVKVSCKTSRYTFTEYTIHWVRQAPGQRLEWIGGINPNNGIPNYNQKFKGRVTITVDTSASTAYMELSSLRSEDTAVYYCARRRIAYGYDEGHAMDYWGQGTLVTVSSASTKGPSVFPLAPSSKSTSGGTAALGCLVKDYFPEPVTVSWNSGALTSGVHTFPAVLQSSGLYSLSSVVTVPSSSLGTQTYICNVNHKPSNTKVDKKVEPKSCDKTHTCPPCPAPELLGGPSVFLFPPKPKDTLMISRTPEVTCVVVAVSHEDPEVKFNWYVDGVEVHNAKTKPREEQYGSTYRVVSVLTVLHQDWLNGKEYKCKVSNKALPAPIEKTISKAKGQPREPQVYTLPPSRDELTKNQVSLWCLVKGFYPSDIAVEWESNGQPENNYKTTPPVLDSDGSFFLYSKLTVDKSRWQQGNVFSCSVMHEALHNHYTQKSLSLSPGK
light: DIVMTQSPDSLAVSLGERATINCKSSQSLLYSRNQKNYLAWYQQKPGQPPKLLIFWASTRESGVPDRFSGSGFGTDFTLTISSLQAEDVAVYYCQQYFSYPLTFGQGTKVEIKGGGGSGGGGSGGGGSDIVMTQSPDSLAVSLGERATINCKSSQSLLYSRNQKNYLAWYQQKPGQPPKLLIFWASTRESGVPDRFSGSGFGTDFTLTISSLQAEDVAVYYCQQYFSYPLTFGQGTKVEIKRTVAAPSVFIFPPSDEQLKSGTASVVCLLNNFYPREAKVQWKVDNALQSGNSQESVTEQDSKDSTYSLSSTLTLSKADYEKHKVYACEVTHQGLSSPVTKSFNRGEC
chain: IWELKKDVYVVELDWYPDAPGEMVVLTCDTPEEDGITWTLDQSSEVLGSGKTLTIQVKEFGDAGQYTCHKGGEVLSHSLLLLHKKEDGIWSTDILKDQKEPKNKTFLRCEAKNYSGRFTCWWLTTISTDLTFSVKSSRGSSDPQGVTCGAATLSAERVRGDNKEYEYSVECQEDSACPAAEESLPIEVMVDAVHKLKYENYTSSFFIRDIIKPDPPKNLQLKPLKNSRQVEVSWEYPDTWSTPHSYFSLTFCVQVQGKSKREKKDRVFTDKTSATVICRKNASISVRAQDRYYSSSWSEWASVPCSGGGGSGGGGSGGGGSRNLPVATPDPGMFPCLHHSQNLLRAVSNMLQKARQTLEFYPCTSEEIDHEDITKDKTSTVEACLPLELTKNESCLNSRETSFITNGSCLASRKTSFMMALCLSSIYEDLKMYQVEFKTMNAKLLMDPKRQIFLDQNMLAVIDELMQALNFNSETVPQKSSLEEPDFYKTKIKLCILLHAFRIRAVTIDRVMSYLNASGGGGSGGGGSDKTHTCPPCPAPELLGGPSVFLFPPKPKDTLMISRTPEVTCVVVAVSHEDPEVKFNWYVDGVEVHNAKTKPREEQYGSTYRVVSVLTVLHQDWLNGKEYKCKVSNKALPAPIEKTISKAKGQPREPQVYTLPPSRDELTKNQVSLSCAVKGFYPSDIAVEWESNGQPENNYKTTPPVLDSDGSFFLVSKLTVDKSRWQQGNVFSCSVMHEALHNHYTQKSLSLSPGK
notes: DVD-Ig form of the anti-FAP arm, knob-in-hole with the IL-12 arm
B8: T1.05 (anti-hu FAP/hu IL-12 mut2, hu IgG1 DANG (2 + 1)) (bispecific antibody)
heavy: B7 heavy
light: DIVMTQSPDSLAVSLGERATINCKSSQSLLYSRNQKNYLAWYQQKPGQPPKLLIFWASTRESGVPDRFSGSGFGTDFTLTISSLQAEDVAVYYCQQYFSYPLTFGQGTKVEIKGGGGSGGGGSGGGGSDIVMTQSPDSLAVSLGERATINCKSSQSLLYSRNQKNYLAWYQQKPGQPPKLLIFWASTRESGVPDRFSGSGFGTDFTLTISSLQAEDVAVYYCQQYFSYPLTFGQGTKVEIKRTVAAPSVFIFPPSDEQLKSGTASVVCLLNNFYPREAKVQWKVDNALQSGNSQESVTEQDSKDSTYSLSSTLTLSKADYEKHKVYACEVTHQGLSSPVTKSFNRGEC
chain: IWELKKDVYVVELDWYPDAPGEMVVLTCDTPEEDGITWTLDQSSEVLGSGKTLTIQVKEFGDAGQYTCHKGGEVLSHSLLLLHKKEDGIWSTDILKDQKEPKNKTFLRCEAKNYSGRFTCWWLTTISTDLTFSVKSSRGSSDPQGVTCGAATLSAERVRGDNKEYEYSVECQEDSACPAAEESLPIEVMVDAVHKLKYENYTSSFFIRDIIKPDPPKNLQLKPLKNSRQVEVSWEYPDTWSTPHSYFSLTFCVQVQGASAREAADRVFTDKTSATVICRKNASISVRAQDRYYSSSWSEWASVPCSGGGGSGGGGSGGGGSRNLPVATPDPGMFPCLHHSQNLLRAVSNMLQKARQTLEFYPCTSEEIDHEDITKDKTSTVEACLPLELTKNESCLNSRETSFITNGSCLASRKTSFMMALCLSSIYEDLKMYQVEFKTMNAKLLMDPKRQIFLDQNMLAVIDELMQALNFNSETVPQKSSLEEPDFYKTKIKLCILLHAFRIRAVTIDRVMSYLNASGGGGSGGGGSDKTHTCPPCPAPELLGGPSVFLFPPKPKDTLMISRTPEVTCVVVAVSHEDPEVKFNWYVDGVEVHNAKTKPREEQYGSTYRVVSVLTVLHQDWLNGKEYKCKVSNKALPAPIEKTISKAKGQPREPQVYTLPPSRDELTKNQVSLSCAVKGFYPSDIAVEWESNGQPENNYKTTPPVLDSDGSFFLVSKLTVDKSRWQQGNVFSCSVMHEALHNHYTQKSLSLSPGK
notes: DVD-Ig form of the anti-FAP arm, knob-in-hole with the IL-12 mut2 arm

Target: T1, recombinant human FAP (human, UniProt Q12884 26-760)
T1 construct: Soluble analyte in SPR; The description calls FAP a homodimer; also called rhFAP
T1 sequence (looked up): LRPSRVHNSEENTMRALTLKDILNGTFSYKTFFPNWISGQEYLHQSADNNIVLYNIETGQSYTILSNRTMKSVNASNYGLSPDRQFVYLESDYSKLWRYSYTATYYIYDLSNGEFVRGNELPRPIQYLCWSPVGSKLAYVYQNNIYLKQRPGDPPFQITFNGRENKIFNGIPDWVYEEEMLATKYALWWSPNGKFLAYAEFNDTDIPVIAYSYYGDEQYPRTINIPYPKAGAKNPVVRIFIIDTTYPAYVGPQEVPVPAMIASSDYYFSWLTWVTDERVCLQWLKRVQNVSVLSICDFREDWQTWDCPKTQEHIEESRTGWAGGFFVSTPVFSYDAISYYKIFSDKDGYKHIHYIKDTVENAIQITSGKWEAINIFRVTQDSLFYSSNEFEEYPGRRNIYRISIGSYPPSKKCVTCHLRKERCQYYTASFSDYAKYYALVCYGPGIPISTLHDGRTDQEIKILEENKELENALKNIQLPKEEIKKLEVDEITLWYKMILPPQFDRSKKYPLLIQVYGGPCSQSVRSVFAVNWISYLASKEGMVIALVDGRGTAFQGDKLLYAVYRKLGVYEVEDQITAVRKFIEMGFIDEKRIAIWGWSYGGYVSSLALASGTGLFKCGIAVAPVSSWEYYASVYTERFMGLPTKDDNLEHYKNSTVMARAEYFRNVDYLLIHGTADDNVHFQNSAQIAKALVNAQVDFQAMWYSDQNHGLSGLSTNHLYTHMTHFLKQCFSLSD
Test: SPR, captured by anti-human IgG (Fc), human FAP analyte, 1:1 binding model
Procedure: Bindings of T1.04, T1.05, T1.06, T1.07, T1.08, T1.09, T1.10 and T1.11 to recombinant human […] were identified by surface plasmon resonance (SPR). The surface of the CM5 chip was activated with a 1:1 mixture of […] (N-hydroxysuccinimide) and […] (1-Ethyl-3-(3-dimethylaminopropyl) carbodiimide), and 25 μg/ml of anti-human IgG (Fc) antibody was immobilized for 400 seconds at a rate of 10 μl/min. The remaining active ester groups were blocked with 1 M ethanolamine.
Specifically, human proteins T1.04, T1.05, T1.06, T1.07, T1.08, T1.09, T1.10 and T1.11 were diluted to 1 μg/ml, 1 μg/ml, 1 μg/ml, 1 μg/ml, 0.5 μg/ml, 0.5 μg/ml, 0.5 μg/ml, and 1 μg/ml, respectively, and reacted on a CM5 chip immobilized with an anti-human IgG (Fc) antibody. The recombinant human FAP was diluted to 25 nM or 50 nM in 1×HBS-EP+buffer solution and diluted by serial dilution. The diluted recombinant human FAP was reacted at a rate of 30 μl/min. The association and dissociation times were 180 seconds and 400 seconds, respectively. After the dissociation, stabilization was performed for 60 seconds, and then a regeneration was performed for 30 seconds with a 10 mM glycine pH 1.5 solution at a rate of 30 μl/min.

Binder | Kd [nM] | koff [s⁻¹] | kon [M⁻¹ s⁻¹]
B1 | 0.177 | 7.87e-05 | 446000
B2 | 0.479 | 7.48e-05 | 156000
B3 | 0.214 | 0.000111 | 517000
B4 | 0.267 | 3.19e-05 | 120000
B5 | 0.596 | 6.22e-05 | 104000
B6 | 0.128 | 7.64e-05 | 597000
B7 | 0.0257 | 1.5e-05 | 583000
B8 | 0.0932 | 5.83e-05 | 625000
